Assay results as given in patent US20040009486A1, “Compositions and methods utilizing DNA polymerases” (priority 1999, published 2004).
Read-outs that look alike come from different tables or passages of the source.

What was measured:
Format in all cases: biochemical
[1] = test system: pBL25C and Temp-A, Temp-T, Temp-C, or Temp-G; test: Rhodamine labeled ddNTP incorporation, TAMRA- and R110-ddNTPs (FIG. 16)
Procedure: These experiments were performed using 1 unit of enzyme, 15 nM primer:template (pBL25C and Temp-A, Temp-T, Temp-C, or Temp-G in four separate reactions), and 50 nM dye-ddNTP (TAMRA- or R110-labeled). The reactions were incubated at 60° C. for 10 minutes and then quenched with ice-cold 0.2 M EDTA (final concentration). The products were purified from unincorporated dye-labeled ddNTPs and analyzed as described above.
Relative incorporation of rhodamine labeled-ddNTPs by the JDF-3 P410L/A485T and Taq F667Y mutants was determined. We used both TAMRA- and R 110-labeled ddNTPs, and the amount of incorporated dye-ddNTPs was measured in fluorescense units. These experiments were performed using pBL25C as the primer, and Temp-A, Temp-T, Temp-C, or Temp-G as the complementary template in four separate reactions. The only difference between these four primer:template systems is the SNP site, thereby eliminating the possibility that primer:template sequence has an effect on dye-ddNTP incorporation. […] Gardner and Jack had also observed variation in the incorporation of ribonucleotides by the A488L mutant (equivalent to JDF-3 A485) of Vent DNA polymerase (from archaeon Thermococcus litoralis)^15.
We performed similar rhodamine labeled-ddNTP incorporation experiments using the same number of units of Taq F667Y.

[2] = test system: rhodamine labeled-ddNTP and primer:template (pBluescript II); test: Steady-state kinetics for rhodamine labeled ddNTPs and primer:template; details: 60° C.
Procedure: Km and Vmax values for rhodamine labeled-ddNTP incorporation were measured by incubating 50 nM primer: template with limiting amounts of polymerase (0.1 units or 5 nM) and varying concentrations of rhodamine labeled-ddNTP ranging from 0.1 nM to 500 nM. Samples were incubated at 60° C. for 10 minutes. The reactions were then quenched with ice-cold 0.2 M EDTA (final concentration). Unincorporated rhodamine labeled ddNTPs were removed by purifying the extended primer:templates on CENTRI-SEP spin columns. Reactions were then dried, and the pellets dissolved in 3:1 formamide:EDTA/blue dextran and analyzed by 6% denaturing PAGE on an ABI 377 sequencer. All peak area quantitations were performed using 3.1.2 GeneScan software and Km and Vmax values were calculated using Lineweaver-Burk plots.
Km and Vmax values for primer:template were measured with limiting amounts of enzyme (0.1 units or 5 nM) in the presence of 100 nM of R110-ddGTP and varying concentrations of primer:template (pBL31G:pBluescript II) ranging from 0.5 to 100 nM. Samples were incubated for 10 minutes at 60° C. The reactions were then quenched, purified from unincorporated rhodamine labeled-ddNTPs, and analyzed as described above.
Km and Vmax values for rhodamine-ddNTP incorporation were measured as described Patel, P. H. et al. (2001). J. Biol. Chem. 276, 5044-51 by incubating 50 nM primer:template with limiting amounts of DNA polymerase (0.1 units, 5 nM) and varying concentrations of rhodamine labeled-ddNTP (0.1 nM to 500 nM). All single nucleotide incorporations with R6G-ddATP and TAMRA-ddATP employed pBL34A:pBluescript II, while reactions with TAMRA-ddCTP were performed with pBL25C:pBluescript II. The 10× reaction buffer used for JDF-3 DNA polymerase contained 200 mM Tris-HCl (pH 8.8), 100 mM KCl, 100 mM (NH4)2SO4, and 20 mM MgSO4, while the 10× reaction buffer employed with the Taq F667Y mutant consisted of 260 mM Tris-HCl (pH 9.5) and 65 mM MgCl2. Samples were incubated at 60° C. for 10 minutes, and the reactions were quenched with ice-cold 0.2 M EDTA (final concentration). Unincorporated rhodamine-ddNTPs were removed with CENTRI-SEP spin columns according to the manufacturer's manual. Reactions were dried, and the pellets were dissolved in 3:1 formamide:EDTA/blue dextran and analyzed by 6% denaturing PAGE on an ABI 377 sequencer. Peak area quantitations were performed using 3.1.2 GeneScan® software and Km and Vmax values were calculated using Lineweaver-Burk plots.
Km and Vmax values for primer:template were measured with limiting amounts of enzyme (0.1 units, 5 nM) in the presence of 100 nM dye-ddNTP and varying concentrations of primer:template (0.5-100 nM). Single nucleotide incorporations with R110-ddGTP employed pBL31G:pBluescript II, while reactions with ROX-ddCTP were carried out with pBL25C:pBluescript II. Samples were incubated and analyzed as described above.

pBL34A:pBluescript II = test: Kinetics of TAMRA-ddATP insertion versus TAMRA-ddGTP misinsertion opposite dT
Procedure: To determine the kinetics of misinsertion, the steady state Michaelis-Menten Km and Vmax parameters were calculated by incubations of limiting amounts of enzyme (0.1 units or 5 nM) in presence of 50 nM primer:template and varying concentrations of non-complementary rhodamine labeled ddNTP (1 nM to 10,000 nM) for 10 minutes at 60° C. Analysis and quantitations were performed as above.
To gain more insight into the mechanism of lower fidelity, we determined the misinsertion frequency for the mispair ddG:dT, which was evaluated in terms of relative Km and Vmax values for the wrong versus correct dye-ddNTP. Efficiency of nucleotide misinsertion was determined opposite a DNA template dT, primed with a 34-nucleotide oligomer (pBL34A). Apparent Michaelis constant (Km) and maximum velocity (Vmax) and relative insertion frequencies were measured for ddATP and ddGTP (Table X).
To determine the kinetics of misinsertion, Km and Vmax values were calculated by incubating limiting amounts of enzyme (0.1 units, 5 nM) in presence of 50 nM primer:template (pBL34A:pBluescript II) and varying concentrations of non-complementary rhodamine-ddGTP (1-10,000 nM) for 10 minutes at 60° C. Analysis and quantitation were performed as above.

Taq F667Y: ThermoSequenase, Taq F667Y mutant DNA polymerase from Amersham Pharmacia Biotech
preference order of ddNTP bases [1]: G>C>A>T | Vmax(fmol/min) TAMRA-ddCTP ([2]; pBL25C:pBluescript): 2.3 fmol/min | Km ([2]; pBL25C:pBluescript, read-out: Km(nM) TAMRA-ddCTP): 0.3 nM | Vmax(fmol/min) Primer:template ([2]; pBL31G:pBluescript, 100 nM R110-ddGTP): 7.4 fmol/min | Km ([2]; pBL31G:pBluescript, 100 nM R110-ddGTP, read-out: Km(nM) Primer:template): 8 nM | Vmax(fmol/min) R6G-ddATP ([2]; pBL34A:pBluescript): 9 fmol/min | Vmax(fmol/min) TAMRA-ddATP ([2]; pBL34A:pBluescript): 1.9 fmol/min | Km ([2]; pBL34A:pBluescript, read-out: Km(nM) R6G-ddATP): 0.35 nM | Km ([2]; pBL34A:pBluescript, read-out: Km(nM) TAMRA-ddATP): 0.6 nM | Km for wrong nucleotide (ddGTP) opposite dT, lower than JDF-3 P410L/A485T (pBL34A:pBluescript II): 7 fold | misinsertion frequency for ddG:dT, higher than JDF-3 P410L/A485T (pBL34A:pBluescript II): ~17 fold | M.F. (M.E./I.E.) misinsertion frequency (pBL34A:pBluescript II; ddG:dT mispair): 0.053 | misinsertion frequency for ddG:dT, higher than JDF-3 P410L/A485T (pBL34A:pBluescript II; listed as Taq F667Y mutant): approximately 17 fold | I.E. Vmax, TAMRA-ddATP insertion (pBL34A:pBluescript II; opposite dT, pBL34A primer): 1.9 | M.E. Vmax, TAMRA-ddGTP misinsertion (pBL34A:pBluescript II; opposite dT, pBL34A primer): 16.9 | Km (pBL34A:pBluescript II; opposite dT, pBL34A primer, read-out: I.E. Km, TAMRA-ddATP insertion): 0.6 nM | Km (pBL34A:pBluescript II; opposite dT, pBL34A primer, read-out: M.E. Km, TAMRA-ddGTP misinsertion): 100 nM
